Measured values from patent US20180155413A1 (AstraZeneca / MedImmune, published 2018).
Numbering of substitutions follows the chain as printed.

B1: GL20/39FTL BiS4 100/44 (bispecific antibody)
light: DIQMTQSPSSLSASVGDRVTITCRTSQSLSSYTHWYQQKPGKAPKLLIYAASSRGSGVPSRFSGSGSGTDFTLTISSLQPEDFATYYCQQSRTFGQGTKVEIK
heavy (part 1 of 2): QVQLQQSGPGLVKPSQTLSLTCAISGDSVSSYNAVWNWIRQSPSRGLEWLGRTYYRSGWYNDYAESVKSRITINPDTSKNQFSLQLNSVTPEDTAVYYCARSGHITVFGVNVDAFDMWGQGTMVTVSS
heavy (part 2 of 2): DIQMTQSPSSVSASVGDRVTITCRASQDISTWLAWYQQKPGKAPKLLIYAASSLQSGVPSRFSGSGSGTDFTLTISSLQPEDFATYYCQQANSFPPTFGCGTKLEIKGGGGSGGGGSGGGGSGGGGSEVQLVESGGGLVKPGGSLRLSCAASGFTFLNAWMSWVRQAPGKCLEWVGRIKSNTDGGTTDYAAPVKGRFTISRDDSKNTLYLQMSSLKTEDTAVYYCTTDGPYSDDFRSGYAARYRYFGMDVWGQGTTVTVSS
B2: FY1 IgG (antibody, V domains shown)
VH: B1 heavy (part 1 of 2) with Q6E, Y32N, G58K, I73V, Q85H, N87K, Y97F, A100V
VL: B1 light with T33L, R54L, G55Q
B3: FY1/94 BiS2 100/44 (bispecific antibody)
light: DIQMTQSPSSLSASVGDRVTITCRTSQSLSSYLHWYQQKPGKAPKLLIYAASSLQSGVPSRFSGSGSGTDFTLTISSLQPEDFATYYCQQSRTFGQGTKVEIKRTVAAPSVFIFPPSDEQLKSGTASVVCLLNNFYPREAKVQWKVDNALQSGNSQESVTEQDSKDSTYSLSSTLTLSKADYEKHKVYACEVTHQGLSSPVTKSFNRGEC
heavy: not shown
B4: FY1/39 BiS3 100/44 (bispecific antibody)
light: B3 light
heavy: not shown
B5: FY1/39 BiS2 100/44 (bispecific antibody)
light: B3 light
heavy: not shown
B6: FY1/94 BiS4 100/44 (bispecific antibody)
light: B3 light
heavy: not shown
B7: FY1/39 BiS1 100/44 (bispecific antibody)
light: DIQMTQSPSSVSASVGDRVTITCRASQDISTWLAWYQQKPGKAPKLLIYAASSLQSGVPSRFSGSGSGTDFTLTISSLQPEDFATYFCQQANSFPPTFGCGTKLEIKGGGGSGGGGSGGGGSGGGGSEVQLVVSGGGLVKPGGSLRLSCAASGLSFLNAWMSWVRQAPGKCLEWVGRIKSNTDGGTTDYAAPVKGRFSISRDDSKNMLFLHMSSLRTEDTAVYYCATDGPYSDDFRSGYAARYRYFGMDVWGQGTTVTVSSGGGGSGGGGSDIQMTQSPSSLSASVGDRVTITCRTSQSLSSYLHWYQQKPGKAPKLLIYAASSLQSGVPSRFSGSGSGTDFTLTISSLQPEDFATYYCQQSRTFGQGTKVEIKRTVAAPSVFIFPPSDEQLKSGTASVVCLLNNFYPREAKVQWKVDNALQSGNSQESVTEQDSKDSTYSLSSTLTLSKADYEKHKVYACEVTHQGLSSPVTKSFNRGEC
heavy: not shown

Tests used:
Assay in all cases: cell-based or functional assay
[1] = target: HA of A/Shan dong/9/93 (H3N2) (influenza A virus)
[2] = target: HA of B/Ohio/1/2005 (victoria) (influenza B virus)
[3] = target: HA of A/Victoria/3/75 (H3N2) (influenza A virus)
[4] = target: HA of B/Malaysia/2506/2004 (victoria) (influenza B virus)
[5] = target: HA of A/Solomon Island/3/2006 (H1N1) (influenza A virus)
[6] = target: HA of B/Florida/4/2006 (yamagata) (influenza B virus)
[7] = target: HA of A/Beijing/262/95 (H1N1) (influenza A virus)
[8] = target: HA of A/California/07/2009 (H1N1) (influenza A virus)
[9] = target: HA of B/Sichuan/379/99 (yamagata) (influenza B virus)
[10] = target: HA of B/Hong Kong/330/2001 (victoria) (influenza B virus)
[11] = target: HA of A/Wilson Smith N/33 (H1N1) (influenza A virus, UniProt P03454 18-565)
[12] = target: HA of ca B/Beijing/243/97 (victoria) (influenza B virus)
[13] = target: HA of A/Hong Kong/8/68 (H3N2) (influenza A virus)
[14] = target: HA of B/Yamanashi/166/98 (yamagata) (influenza B virus)
[15] = target: HA of ca A/Panama/2007/99 (H3N2) (influenza A virus)

Sequence of HA of A/Wilson Smith N/33 (H1N1) (P03454 18-565 limits assumed): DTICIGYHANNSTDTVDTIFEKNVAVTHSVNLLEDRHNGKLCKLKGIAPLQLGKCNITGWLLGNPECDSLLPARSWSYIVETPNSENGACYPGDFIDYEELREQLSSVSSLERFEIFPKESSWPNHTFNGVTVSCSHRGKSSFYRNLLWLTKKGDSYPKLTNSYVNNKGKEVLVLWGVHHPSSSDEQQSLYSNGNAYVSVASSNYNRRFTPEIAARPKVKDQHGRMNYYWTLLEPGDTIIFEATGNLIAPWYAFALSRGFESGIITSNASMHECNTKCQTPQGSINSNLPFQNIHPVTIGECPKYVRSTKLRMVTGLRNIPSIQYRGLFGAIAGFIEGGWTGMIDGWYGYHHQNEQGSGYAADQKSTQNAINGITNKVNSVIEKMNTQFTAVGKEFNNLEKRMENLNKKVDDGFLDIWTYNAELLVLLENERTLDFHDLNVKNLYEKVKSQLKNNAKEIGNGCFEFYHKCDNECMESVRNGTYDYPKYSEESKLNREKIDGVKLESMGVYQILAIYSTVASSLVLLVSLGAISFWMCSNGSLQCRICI

Row | Binder | Neutralization (IC50) [1] [nM] | Neutralization (IC50) [2] [nM] | Neutralization (IC50) [3] [nM] | Neutralization (IC50) [4] [nM] | Neutralization (IC50) [5] [nM] | Neutralization (IC50) [6] [nM] | Neutralization (IC50) [7] [nM] | Neutralization (IC50) [8] [nM] | Neutralization (IC50) [9] [nM] | Neutralization (IC50) [10] [nM] | Neutralization (IC50) [11] [nM] | Neutralization (IC50) [12] [nM] | Neutralization (IC50) [13] [nM] | Neutralization (IC50) [14] [nM] | Neutralization (IC50) [15] [nM]
1 | B1 | 21.9 | 20.9 | 13.3 | 42.8 | 4.4 | 7.3 | 16.4 | 25.4 | 9.8 | 106 | 13.7 | 96.2 | 10.8 | 1.4 | 34.1
2 | B2 | 34.6 | > 1000 | 12 | > 1000 | 3.1 | > 1000 | 21 | 10.4 | > 1000 | > 1000 | 8.8 | > 1000 | 10.6 | > 1000 | 104
3 | B3 | 208 | 1.3 | 15.8 | 0.8 | 4.1 | 0.6 | 42 | 23.1 | 1.7 | 2.1 | 19.9 | 1.1 | 17.2 | 0.5 | 484
4 | B4 | 7.8 | 8.1 | 45.2 | 43.7 | 2.5 | 5.9 | 20.2 | 9.9 | 12.3 | 112 | 10.6 | 21.5 | 5.8 | 0.7 | 149
5 | B5 | 72.1 | 2.8 | > 1000 | 5.6 | 9.9 | 1.7 | 61.3 | 18.7 | 2.1 | 7 | 17.7 | 6.1 | 10.2 | 0.4 | > 1000
6 | B6 | 37.9 | 3 | 7.2 | 1.8 | 2.5 | 1.8 | 13.1 | 6.2 | 5.2 | 4 | 7.3 | 1.8 | 9.1 | 2.3 | 38.2
7 | B7 | > 1000 | 2.6 | 337 | 4.1 | 14.7 | 1.1 | 62.2 | 32.5 | 1.5 | 5.3 | 28.2 | 3.6 | 31.4 | 0.1 | > 1000
